One substance from PMC10073703 can be followed below.

The target of this assay is Haemagglutinin (HA) of influenza A/Delaware/55/2019 (H1N1), from Flucelvax monovalent drug substance (Monobulk) (influenza A virus A/Delaware/55/2019 (H1N1)). In words: SEC. Background: Size exclusion chromatography separates by hydrodynamic size, large species first.

The stoichiometry N is the number of molecules, sites or subunits per partner or assembly.

On to “Haemagglutinin (HA) of influenza A/Delaware/55/2019 (H1N1), from Flucelvax monovalent drug substance (Monobulk) (natural protein)”, for which the stoichiometry N amounted to 3.
